In publication PMC5942852 (2018):
Where “and” joins values, the source holds several entries; their conditions need not be identical. Equal values may be shown once.

T1: Bee Hyaluronidase (bee)
T1 chain: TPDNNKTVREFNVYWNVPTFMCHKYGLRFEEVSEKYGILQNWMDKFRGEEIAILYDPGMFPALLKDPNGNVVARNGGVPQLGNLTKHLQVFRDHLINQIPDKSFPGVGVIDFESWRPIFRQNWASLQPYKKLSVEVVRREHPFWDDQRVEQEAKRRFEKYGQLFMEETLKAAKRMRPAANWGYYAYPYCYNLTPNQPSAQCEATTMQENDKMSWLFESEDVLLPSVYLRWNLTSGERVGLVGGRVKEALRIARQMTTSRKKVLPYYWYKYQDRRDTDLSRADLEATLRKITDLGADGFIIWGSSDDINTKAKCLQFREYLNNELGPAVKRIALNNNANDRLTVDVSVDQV


Experiments:
Bee Hyaluronidase [1] = target: T1, Bee Hyaluronidase; assay: SPR; XPR repeat 2
Bee Hyaluronidase [2] = target: T1, Bee Hyaluronidase; assay: SPR; XPR repeat 1
Bee Hyaluronidase [3] = target: T1, Bee Hyaluronidase; assay: SPR; XPR repeat 2
Bee Hyaluronidase [4] = target: T1, Bee Hyaluronidase; assay: SPR
Bee Hyaluronidase [5] = target: T1, Bee Hyaluronidase; assay: SPR

Row | Binder | koff (Bee Hyaluronidase [1]) [s⁻¹] | koff (Bee Hyaluronidase [2]) [s⁻¹] | Kd (Bee Hyaluronidase [3]) [nM] | Kd (Bee Hyaluronidase [4]) | koff (Bee Hyaluronidase [5])
1 | L14_7 (antibody, V domains shown) VH: not shown VL: DIQMTQSPASLSASVGETVTITCRSSRDIKDYITWYQQKQGKSPQLLVYNAKTLAEGVPSRFSGSGSGTEFSLKISSLQPEDFGNYYCQHHYGTRTFGGGTRLEIK | 0.000133 | 0.000115 | 0.962 | – | –
2 | WT 2J88 antibody (antibody, V domains shown) VH: not shown VL: DIQMTQSPASLSASVGETVTITCRASENIYSYLTWYQQKQGKSPQLLVYNAKTLAEGVPSRFSGSGSGTQFSLKISSLQPEDFGNYYCQHHYGTRTFGGGTRLEIK | – | – | – | 10.4 nM and 15.6 nM | 0.00111 s⁻¹ and 0.0013 s⁻¹ and 0.00116 s⁻¹
